Test [1] deals with prefusion-stabilized RSV F (DS-Cav1), subtype A (strain A2), with C-terminal His tag and Strep-tag I (human respiratory syncytial virus subtype A (strain A2)) (UniProt P03420). The test is described as follows: SPR.
Test [2] addresses prefusion-stabilized RSV F (DS-Cav1), subtype B (strain B9320), with C-terminal His tag and Strep-ta (human respiratory syncytial virus subtype B (strain B9320)). The test is described as follows: SPR. In general terms: SPR reads the build-up and loss of mass on a sensor chip optically.
In test [3] the target is subtype A DS-Cav1 with a K209Q substitution (form used for SPR) (human respiratory syncytial virus subtype A (strain A2)) (UniProt P03420). As to the kind of experiment: SPR.
The target of test [4] is prefusion-stabilized RSV F variant DS-Cav1 from strain A2, tags removed, Endo H-treated (form used for crystallization) (human respiratory syncytial virus subtype A (strain A2)) (UniProt P03420). The test is described as follows: crystal structure.

Drawing on PMC6658013, this text covers Kd and stoichiometry N (Fabs per F trimer) for two substances.

Chain of AM22 antigen-binding fragment (Fab) (VH): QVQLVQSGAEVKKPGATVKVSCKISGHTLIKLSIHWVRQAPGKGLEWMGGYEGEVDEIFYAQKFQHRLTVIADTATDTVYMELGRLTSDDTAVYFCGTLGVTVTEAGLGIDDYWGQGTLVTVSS
Chain of AM22 antigen-binding fragment (Fab) (VL): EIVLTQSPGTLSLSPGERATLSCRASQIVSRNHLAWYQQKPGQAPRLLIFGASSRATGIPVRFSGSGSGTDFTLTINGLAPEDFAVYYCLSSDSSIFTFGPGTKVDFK

With AM22 antigen-binding fragment (Fab), the figures for the equilibrium dissociation constant (Kd) in test [1], in test [2] and in test [3] were 0.12 nM, 6.1 nM and 6.7 nM, respectively. This substance also returned a stoichiometry N (Fabs per F trimer) in test [4] of 3.
Regarding D25 Fab, the dissociation constant Kd is less than 0.064 nM in test [1] and 0.33 nM in test [2].

One may read the Kd as the free concentration of one partner at which half of the binding sites on the other are occupied at equilibrium, for simple one-to-one binding.
